Data published in paper PMC3060061.

Molecular target: PP2A core enzyme (A–C core dimer) (human) (UniProt P30153)
Experiment: ITC

Chain of UniProt P30153 (P30153 whole entry, chain 1 of 2): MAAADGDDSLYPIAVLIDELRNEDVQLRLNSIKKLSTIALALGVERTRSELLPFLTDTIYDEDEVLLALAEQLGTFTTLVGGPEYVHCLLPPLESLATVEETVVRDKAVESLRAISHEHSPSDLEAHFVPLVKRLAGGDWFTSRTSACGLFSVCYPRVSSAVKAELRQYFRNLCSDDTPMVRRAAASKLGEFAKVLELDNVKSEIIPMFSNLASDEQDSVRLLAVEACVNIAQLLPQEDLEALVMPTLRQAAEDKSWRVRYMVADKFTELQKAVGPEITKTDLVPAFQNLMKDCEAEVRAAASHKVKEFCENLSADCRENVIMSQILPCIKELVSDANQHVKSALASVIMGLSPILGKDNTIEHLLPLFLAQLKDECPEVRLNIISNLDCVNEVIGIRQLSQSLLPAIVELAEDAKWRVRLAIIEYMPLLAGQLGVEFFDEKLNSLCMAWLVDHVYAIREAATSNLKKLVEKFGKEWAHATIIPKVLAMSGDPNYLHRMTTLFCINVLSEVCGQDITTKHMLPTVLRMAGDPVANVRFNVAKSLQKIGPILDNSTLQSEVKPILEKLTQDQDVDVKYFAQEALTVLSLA
Chain of UniProt P30153 (P67775 whole entry, chain 2 of 2, further chain): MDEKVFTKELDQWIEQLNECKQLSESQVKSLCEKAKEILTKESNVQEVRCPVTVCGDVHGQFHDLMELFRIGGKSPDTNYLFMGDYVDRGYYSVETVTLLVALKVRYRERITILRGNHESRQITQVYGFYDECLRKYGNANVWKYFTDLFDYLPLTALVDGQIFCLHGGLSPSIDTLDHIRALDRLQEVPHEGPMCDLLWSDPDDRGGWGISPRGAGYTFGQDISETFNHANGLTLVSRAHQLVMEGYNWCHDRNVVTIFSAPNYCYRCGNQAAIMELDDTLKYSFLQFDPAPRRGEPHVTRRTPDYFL

- fold increase of the binding affinity against wild type LCMT-1: 4 fold
Substance: LCMT-1 T29V (enzyme)
